Measurements from IntAct's records for PubMed 17032765.

B1: Segment polarity protein dishevelled homolog DVL-2 (Mus musculus), Q60838 (parent)
chain: MAGSSAGGGGVGETKVIYHLDEEETPYLVKIPVPAERITLGDFKSVLQRPAGAKYFFKSMDQDFGVVKEEISDDNARLPCFNGRVVSWLVSSDTPQPEVAPPAHESRTELVPPPPPLPPLPPERTSGIGDSRPPSFHPNVSSSHENLEPETETESVVSLRRDRPRRRDSSEHGAGGHRPGGPSRLERHLAGYESSSTLMTSELESTSLGDSDEDDTMSRFSSSTEQSSASRLLKRHRRRRKQRPPRMERTSSFSSVTDSTMSLNIITVTLNMEKYNFLGISIVGQSNERGDGGIYIGSIMKGGAVAADGRIEPGDMLLQVNDMNFENMSNDDAVRVLRDIVHKPGPIVLTVAKCWDPSPQAYFTLPRNEPIQPIDPAAWVSHSAALTGAFPAYPGSSSMSTITSGSSLPDGCEGRGLSVHMDMASVTKAMAAPESGLEVRDRMWLKITIPNAFLGSDVVDWLYHHVEGFPERREARKYASGLLKAGLIRHTVNKITFSEQCYYVFGDLSGGCESYLVNLSLNDNDGSSGASDQDTLAPLPGATPWPLLPTFSYQYPAPHPYSPQPPPYHELSSYTYGGGSASSQHSEGSRSSGSTRSDGGAGRTGRPEERAPESKSGSGSESELSSRGGSLRRGGEPGGTGDGGPPPSRGSTGAPPNLRALPGLHPYGAPSGMALPYNPMMVVMMPPPPPPVSTAVQPPGAPPVRDLGSVPPELTASRQSFHMAMGNPSEFFVDVM

Variants of: B1
Conditions: with Ankrd6, Q69ZU8-1
Chain of Ankrd6, Q69ZU8-1 (Q69ZU8 whole entry): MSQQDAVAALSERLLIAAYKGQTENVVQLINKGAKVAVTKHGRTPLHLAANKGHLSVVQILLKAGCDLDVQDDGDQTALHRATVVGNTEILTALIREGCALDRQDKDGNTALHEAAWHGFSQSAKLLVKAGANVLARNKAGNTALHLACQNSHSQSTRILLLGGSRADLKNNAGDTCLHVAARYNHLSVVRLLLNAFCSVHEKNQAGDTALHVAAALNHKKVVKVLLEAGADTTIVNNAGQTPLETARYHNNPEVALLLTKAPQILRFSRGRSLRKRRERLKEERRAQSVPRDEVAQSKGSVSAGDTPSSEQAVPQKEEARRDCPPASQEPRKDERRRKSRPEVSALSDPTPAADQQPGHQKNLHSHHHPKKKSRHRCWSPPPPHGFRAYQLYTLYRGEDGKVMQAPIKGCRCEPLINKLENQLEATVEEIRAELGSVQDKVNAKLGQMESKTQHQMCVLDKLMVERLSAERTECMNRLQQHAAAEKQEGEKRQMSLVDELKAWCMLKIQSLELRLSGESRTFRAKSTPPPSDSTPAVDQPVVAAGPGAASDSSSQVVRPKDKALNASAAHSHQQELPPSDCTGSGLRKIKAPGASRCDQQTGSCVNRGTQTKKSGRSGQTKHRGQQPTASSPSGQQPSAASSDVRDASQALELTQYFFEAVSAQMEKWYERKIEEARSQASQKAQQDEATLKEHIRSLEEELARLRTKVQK

Row | effect of a mutation on the interaction | Variant
1 | decreasing interaction strength | K446M
